T1: neuromedin-B preferring receptor (NMB-R) on C6 rodent glioblastoma cells (rodent, UniProt P24053 1-390, limits assumed)
T1 construct: whole, on cells; also called C6/NMB-R
T1 sequence (looked up): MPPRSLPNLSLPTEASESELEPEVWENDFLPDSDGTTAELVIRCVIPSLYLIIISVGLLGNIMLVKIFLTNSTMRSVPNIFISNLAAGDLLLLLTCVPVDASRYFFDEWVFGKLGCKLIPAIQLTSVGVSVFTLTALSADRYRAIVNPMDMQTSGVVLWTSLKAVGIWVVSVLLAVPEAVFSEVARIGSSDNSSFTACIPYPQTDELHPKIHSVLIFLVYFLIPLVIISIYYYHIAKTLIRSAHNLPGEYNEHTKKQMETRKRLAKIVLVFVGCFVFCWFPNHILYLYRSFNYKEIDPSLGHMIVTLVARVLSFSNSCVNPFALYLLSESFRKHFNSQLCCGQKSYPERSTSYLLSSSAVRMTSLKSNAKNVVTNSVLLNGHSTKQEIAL


Columns and labels:
[1] = target: T2, gastrin releasing peptide receptor (GRP-R) (human, UniProt P30550 1-384); assay: 125I-BBN competition, PC3 cells
T2 construct: whole, on cells; also called GRP receptor; BB2

[2] = target: T1, neuromedin-B preferring receptor …; assay: 125I-NMB competition, C6 cells

T2 sequence (P30550 whole entry): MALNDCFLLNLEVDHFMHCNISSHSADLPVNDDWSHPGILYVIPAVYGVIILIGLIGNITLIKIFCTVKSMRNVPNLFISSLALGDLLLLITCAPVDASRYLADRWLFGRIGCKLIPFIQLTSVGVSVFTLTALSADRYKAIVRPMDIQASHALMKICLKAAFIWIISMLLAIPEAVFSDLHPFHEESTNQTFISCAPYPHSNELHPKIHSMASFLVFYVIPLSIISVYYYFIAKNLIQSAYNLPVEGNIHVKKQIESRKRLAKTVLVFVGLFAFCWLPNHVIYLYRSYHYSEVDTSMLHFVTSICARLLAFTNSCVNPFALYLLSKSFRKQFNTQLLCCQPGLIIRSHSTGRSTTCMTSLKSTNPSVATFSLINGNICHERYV

IC50 [1] [nM] | IC50 [2] [nM] | Binder
2 |  | QWAVGHLM (N-term: N,N-dimethylglycine-Ser-Cys(Acm)-Gly-Ser-Lys; C-term amide) [N,N-dimethylglycine-Ser-Cys(Acm)-Gly-SK-QWAVGHLM-NH2]
 | 60 | QWAVGHLM (N-term: N,N-dimethylglycine-Ser-Cys(Acm)-Gly-Lys-Glu; C-term amide) [N,N-dimethylglycine-Ser-Cys(Acm)-Gly-KE-QWAVGHLM-NH2]
 | 2 | QWAVGHLM (N-term: N,N-dimethylglycine-Ser-Cys(Acm)-Gly-Ser-Arg; C-term amide) [N,N-dimethylglycine-Ser-Cys(Acm)-Gly-SR-QWAVGHLM-NH2]
